B1: CD58 Full ECD (ligand)
chain: SQQIYGVVYGNVTFHVPSNVPLKEVLWKKQKDKVAELENSEFRAFSSFKNRVYLDTVSGSLTIYNLTSSDEDEYEMESPNITDTMKFFLYVLESLPSPTLTCALTNGSIEVQCMIPEHYNSHRGLIMYSWDCPMEQCKRNSTSIYFKMENDLPQKIQCTLSNPLFNTTSSIILTTCIPSSGHSRHRGGGGSHHHHHHHH
notes: Recombinant, made in HEK293 cells
B2: CD58_IgV (ligand)
chain: SQQIYGVVYGNVTFHVPSNVPLKEVLWKKQKDKVAELENSEFRAFSSFKNRVYLDTVSGSLTIYNLTSSDEDEYEMESPNITDTMKFFLYVLESGGGGSHHHHHHHH
notes: Recombinant, made in HEK293 cells; also called CD58 domain 1; IgV domain of CD58 (wild type)
B3: IgV V54C_G88C (ligand)
chain: B2 chain with V25C, G59C
notes: Disulfide-stabilised variant
B4: IgV V45C_M114C (ligand)
chain: B2 chain with V16C, M85C
notes: Disulfide-stabilised variant
B5: IgV V45C_M105C (ligand)
chain: B2 chain with V16C, M76C
notes: Disulfide-stabilised variant
B6: PI-61 (antibody, V domains shown)
VH: QVQLQESGGGVVQPGRSLRLSCAASGFTFSSYGMHWVRQAPGKGLEWVAVISYDGSNKYYADSVKGRFTISRDNSKNTLYLQMNSLRAEDTAVYYCGGSGYALHDDYYGLDVWGQGTLVTVSS
VL: QSALTQPASVSGSPGQSITISCTGTSSDVGGYNYVSWYQQHPGKAPKLMIYDVSNRPSGVSNRFSGSKSGNTASLTISGLQAEDEADYYCSSYTSSSTLYVFGSGTKVTVL
notes: also called parental PI-61 antibody; P1-61
B7: H2/L2-36 (antibody, V domains shown)
VH: B6 VH with V2A, E6S, D54K
VL: B6 VL with D52E, P57L, S58R, S69F
notes: AB3 family
B8: H2/L2-22 (antibody, V domains shown)
VH: B6 VH with V2A, E6S, G8E, D54H
VL: B6 VL with D52E, P57L, S69F
notes: AB3 family
B9: H3-8 (antibody, V domains shown)
VH: B6 VH with V2A, E6G, G8E, G55D, S56A, N57H, D106Q, Y108K, G109P, L110V
VL: B6 VL with D52E, P57L, S58R, S69F
notes: AB3 family
B10: H3-4 (antibody, V domains shown)
VH: B6 VH with E6G, G55D, S56A, N57H, D106Q, Y108K, G109P, L110V
VL: B6 VL with D52E, P57L, S58R, S69F, T98A
notes: AB3 family
B11: H3-2 (antibody, V domains shown)
VH: QAQLQESEGGVVQPGGSLRLSCAASGFTFSSYGMHWVRQAPGKGLEWVAVISYNDLNKYYADSVKGRFTISRDNSKNTLYLQMNSLRAEDTAVYYCGGSGYALHDFQDPTDVWGQGTLVTVSS
VL: B6 VL with D52E, P57L, S58R, S69F
notes: AB3 family
B12: H3-14 (antibody, V domains shown)
VH: B6 VH with E6G, G55D, S56A, N57H, D106Q, Y108K, G109P, L110V
VL: B6 VL with D52E, P57L, S69F, T98A
notes: AB3 family
B13: H2/L2-18 (antibody, V domains shown)
VH: B6 VH with V2A, E6G, D54K, N57H
VL: B6 VL with S58W, S69F
notes: AB3 family
B14: H3-9 (antibody, V domains shown)
VH: B6 VH with E6G, G55D, S56A, N57H, D106Q, Y108K, G109P, L110V
VL: B6 VL with D52E, P57L, S58R, S69F, D87Y
notes: AB3 family
B15: H3-5 (antibody, V domains shown)
VH: B6 VH with E6G, D54T, S56A, A102N
VL: B6 VL with D52E, P57L, S69F
notes: AB3 family
B16: H3-3 (antibody, V domains shown)
VH: B6 VH with E6S, F29V, D54S, D106Q, Y108K, G109P, L110V
VL: B6 VL with D52E, P57L, S58R, S69F
notes: AB3 family
B17: H3-11 (antibody, V domains shown)
VH: B6 VH with E6S, G8E, D54N, G55D, S56A, A102E, H104R
VL: B6 VL with D52E, P57L, S58R, S69F
notes: AB3 family
B18: H3-13 (antibody, V domains shown)
VH: B6 VH with G55D, S56A, N57H, D106Q, Y108K, G109P, L110V
VL: B6 VL with D52E, P57L, S58R, S69F
notes: AB3 family
B19: H2/L2-80 (antibody, V domains shown)
VH: B6 VH with E6S, D54T
VL: B6 VL with P57A, S58W, S69F, T98A
notes: AB3 family
B20: H2/L2-88 (antibody, V domains shown)
VH: B6 VH with E6S, G8E, D54K
VL: B6 VL with D52E, P57L, S58R, S69F, T98A
notes: AB3 family
B21: H3-6 (antibody, V domains shown)
VH: B6 VH with V2A, E6R, G55D, S56A, N57H, D106Q, Y108K, G109P, L110V
VL: B6 VL with D52E, P57L, S58R, S69F, T98A
notes: AB3 family
B22: H3-7 (antibody, V domains shown)
VH: B6 VH with E6S, G8E, F29L, D54T, A102E, L103F, D105E
VL: B6 VL with D52E, P57L, S58R, S69F
notes: AB3 family
B23: H2/L2-83 (antibody, V domains shown)
VH: B6 VH with V2A, E6G, D54K
VL: B6 VL with D52E, P57L, S58R, S69F
notes: AB3 family
B24: AB3 (antibody, V domains shown)
VH: B6 VH with Q5V, F29V, D54T
VL: B6 VL with P57L, S58R, T98A
notes: AB3 family
B25: H3-12 (antibody, V domains shown)
VH: B6 VH with V2A, E6S, G8E, G55E, A102E, L103V, H104D, D105Q
VL: B6 VL with D52E, P57L, S58R, S69F
notes: AB3 family
B26: H2/L2-47 (antibody, V domains shown)
VH: B6 VH with E6S, G8E, D54K
VL: B6 VL with S58W, S69F
notes: AB3 family
B27: H3-15 (antibody, V domains shown)
VH: B6 VH with E6G, F29V, G55D, S56A, N74S, L103Y, H104D, D105G
VL: B6 VL with D52E, P57L, S58G, S69F, T98A
notes: AB3 family
B28: H2/L2-68 (antibody, V domains shown)
VH: B6 VH with V2A, E6S, G8E, D54R, S56F, L110Q
VL: B6 VL with P57L, S69F
notes: AB3 family
B29: H3-1 (antibody, V domains shown)
VH: B6 VH with E6G, G55D, S56A, N57H, D106Q, Y108K, G109P, L110V
VL: B6 VL with D52E, P57L, S58R, S69F
notes: AB3 family
B30: H3-10 (antibody, V domains shown)
VH: B6 VH with E6S, D54N, G55D, S56L, A102E, L103F, H104Q, D105G
VL: B6 VL with D52E, P57L, S58R, S69F
notes: AB3 family
B31: H2/L2-20 (antibody, V domains shown)
VH: B6 VH with V2A, E6S, F29V, D54T
VL: B6 VL with P57L, S58R, S69F, T98A
notes: AB3 family

Changes are numbered by the printed parent chain.

The target in the first experiment is T1, Human CD2 (human, UniProt P06729 25-209).
T1 construct: also called recombinant human CD2; CD2 extracellular domain
T1 sequence: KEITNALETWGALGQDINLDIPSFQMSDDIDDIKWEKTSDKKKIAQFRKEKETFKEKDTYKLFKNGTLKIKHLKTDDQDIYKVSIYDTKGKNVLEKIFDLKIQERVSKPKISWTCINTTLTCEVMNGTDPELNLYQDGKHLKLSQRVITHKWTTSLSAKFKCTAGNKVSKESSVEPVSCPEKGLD
Kind of experiment: isothermal titration calorimetry; 100 uM CD2 titrated into 10 uM CD58 variant in HBS. The method, then: To ensure the binding affinity remained uncompromised by the additional of the stabilizing disulfide variance, isothermal calorimetry (ITC) was performed on the resulting recombinant CD58 proteins to determine their apparent KD and binding stoicheometry (n) to recombinant human CD2.
Briefly, recombinant human CD2 and recombinant human CD58 variants were dialyzed into HEPES-buffered saline (HBS). CD2 was diluted to final concentration of 100 μM, CD58 variants were diluted to 10 μM. CD2 was titrated into 10 μM of CD58 variants via multiple injections and ΔH (kcal/mole) determined using a MicroCal VP-ITC isothermal titration calorimeter (Malvern). Titrations of CD2 into HBS were used as a reference and KD and n determined from the resulting data.
On the technique in general: Isothermal titration calorimetry measures the heat released or taken up as one component is titrated into another.
Consider B1, for which the “n (binding stoichiometry)” value was determined as 0.92. As usually defined, the Kd is a measure of binding affinity in units of concentration. The low end stands for a tighter complex, the high end for a looser complex. As for B2, the Kd is 610 nM and the “n (binding stoichiometry)” value was found to be 0.96. The matching figures for B3: 600 nM and 0.83. The matching figures for B4: 380 nM and 0.88. B5: the Kd worked out at 880 nM and the “n (binding stoichiometry)” value turned out to be 0.97.

A further experiment addresses T2, human BCMA (human, UniProt Q02223 1-54, limits assumed).
T2 construct: also called B-cell maturation antigen; TNFRSF17
T2 sequence (looked up): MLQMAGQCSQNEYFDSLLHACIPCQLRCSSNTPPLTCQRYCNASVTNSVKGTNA
Kind of experiment: phage display selection.
Take B6: the binding result is on record as “binds”.

Another experiment has as its target T2, human BCMA. Kind of experiment: affinity maturation of PI-61.
Take B7: the binding result is recorded as “binds”. On to B8, for which the binding result is reported as “binds”. For the molecule B9, the binding result is on record as “binds”.

With B10, the binding result was “binds”. Same read-out and setting: the result for B11 reads “binds”; that for B12, “binds”; that for B13, “binds”.

For B14, the binding result is “binds”. Still for that read-out and setting: the result for B15 reads “binds”; that for B16, “binds”. Take B17: the binding result is “binds”. On the same count and under the same terms, the result for B18 reads “binds”; that for B19, “binds”; that for B20, “binds”.

In the case of B21, the binding result is given as “binds”.

For the molecule B22, the binding result was “binds”. On the same count and under the same terms, next, B23: “binds”; B24: “binds”.

Take B25: the binding result is listed as “binds”.

B26: the binding result is “binds”. Same read-out and setting: next, B27: “binds”; B28: “binds”. For B29, the binding result is listed as “binds”.

On to B30, for which the binding result was “binds”.

Regarding B31, the binding result is recorded as “binds”.

For the origin of these results see patent publication US20220396631A1 (Novartis, published 2022).
